Assay results taken from paper PMC8174033, “FEZ1 Forms Complexes with CRMP1 and DCC to Regulate Axon and Dendrite Development” (eNeuro, 2021).

Target: T1, FEZ1 (amino acids 1-308), EmGFP-tagged (UniProt Q99689 1-308)
T1 construct: FEZ1, amino acids 1-308; plasmid as described in Chua et al., 2012; also called truncated FEZ1 lacking its C terminus; source: HEK293, transfected, in lysate
T1 sequence (looked up): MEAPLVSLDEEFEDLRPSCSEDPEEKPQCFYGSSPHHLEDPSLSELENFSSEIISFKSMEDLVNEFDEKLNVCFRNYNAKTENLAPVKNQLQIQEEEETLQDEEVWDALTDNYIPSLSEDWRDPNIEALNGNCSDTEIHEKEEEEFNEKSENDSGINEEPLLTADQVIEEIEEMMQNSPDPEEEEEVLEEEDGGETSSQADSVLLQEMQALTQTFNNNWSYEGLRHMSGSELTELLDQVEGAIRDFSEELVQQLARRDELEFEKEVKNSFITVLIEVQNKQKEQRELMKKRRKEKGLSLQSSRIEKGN
Assay: co-IP; HEK293 cells co-expressing the two tagged proteins, 24 h after transfection; lysis and washes in 50 mM HEPES, 150 mM NaCl, 1 mM EDTA, 1% Triton X-100, pH 7.2; GFP-Trap agarose beads 1-3 h at 4°C; immunoblot
Settings: partners not purified

fold change of co-precipitated CRMP1 against full-length FEZ1: ~3 fold
B1: collapsin response mediator protein 1 (CRMP1), full-length, FLAG-tagged (natural protein)
chain: not shown
notes: CRMP1, human cDNA, full-length, in pFLAG-CMV2; also called FLAG-CRMP1; source: HEK293, transfected, in lysate
